Biological target: GST-G1NC_(long) (GST-fused complete cytosolic domain of rat GIRK1, a.a. 1-84, 184-501) (rat) (UniProt P63251)
Test: pull-down

Gβ1(I80N)γ2 (bovine Gβ1 I80N co-translated with bovine Gγ2) (from UniProt P62871 1-340; P63212 1-71) (complex)
binding as % of wt Gβγ: 89.6%
